Results: patent US20210054062A1
Numbering of substitutions follows the chain as printed.

What was measured:
[1] = target: Recombinant human FAM19A5 protein (His-tagged) (human) (UniProt Q7Z5A7); assay: SPR, FAM19A5 immobilised on sensor chip, antibody as analyte, single cycle kinetics, 1:1 fit
[2] = target: human FAM19A5-Fc protein (human), Q7Z5A7; assay: cell-based or functional assay
[3] = target: Recombinant human FAM19A5 protein (His-tagged) (human) (UniProt Q7Z5A7); assay: SPR (Biacore): FAM19A5 protein immobilised on the sensor chip, antibody injected at 1.1 to 90 nM in single cycle kinetics mode, 1:1 binding fit

Sequence of Recombinant human FAM19A5 protein (His-tagged) (human) (Q7Z5A7 44-132): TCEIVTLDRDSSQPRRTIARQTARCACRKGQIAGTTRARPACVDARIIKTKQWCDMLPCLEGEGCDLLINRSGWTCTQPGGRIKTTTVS
Sequence of human FAM19A5-Fc protein (human), Q7Z5A7 (Q7Z5A7 44-132): as above

B1: Reference anti-FAM19A5 antibody ("1-65") (antibody, V domains shown)
VH: AVTLDESGGGLQTPGGALSLVCKASGFTFSSYQMGWVRQAPGKGLEWVGVINKSGSDTSYGSAVKGRATISRDNGQSTVRLQLNNLRAEDTGTYFCAKGSASYITAATIDAWGHGTEVIVSS
VL: ALTQPSSVSANPGETVKITCSGGGSSGYGYGWYQQKSPSSAPLTVIYWNDKRPSDIPSRFSGSKSGSTHTLTITGVQAEDEAVYFCGNDDYSSDSGYVGVFGAGTTLTVL
[1]
  Kd: 0.345 nM
[2]
  amount of phagocytosis (uptake of pHrodo Green E. coli BioParticles by BV2 cells) compared to the control group (PBS alone), about 10 hours after BioParticles: 86%
[3]
  koff: 0.000567 s⁻¹
  kon: 1.64e+06 M⁻¹ s⁻¹

B2: Anti-FAM19A5 antibody ("SS01-13-s5") (antibody, V domains shown)
VH: B1 VH with S19R, V21S, G49S, V50A, V79L, R80Y, L83M, N85S, G92A, T93V
VL: ALTQPSSVSANPGETARITCSGGASSGYGYGWYQQKPSSAPLTVIYKDSERPSDIPSRFSGSSSGSTHTLTISGVQAEDEAVYFCGNDDYSSDSGYVGVFGAGTTLTVL
[1]
  Kd: 2.2 nM
[2]
  amount of phagocytosis (uptake of pHrodo Green E. coli BioParticles by BV2 cells) compared to the control group (PBS alone), about 10 hours after BioParticles: 96%
[3]
  koff: 0.000822 s⁻¹
  kon: 373000 M⁻¹ s⁻¹

B3: Anti-FAM19A5 antibody ("S5-SG") (antibody, V domains shown)
VH: AVTLDESGGGLQTPGGALRLSCKASGFTFSSYQMGWVRQAPGKGLEWVSAINKGGSDTSYGSAVKGRATISRDNGQSTLYLQMNSLRAEDTAVYFCAKGSASYITAATIDAWGHGTEVIVSS
VL: B2 VL
[1]
  Kd: 1.8 nM
[2]
  amount of phagocytosis (uptake of pHrodo Green E. coli BioParticles by BV2 cells) compared to the control group (PBS alone), about 10 hours after BioParticles: 89%
[3]
  koff: 0.00183 s⁻¹
  kon: 1.02e+06 M⁻¹ s⁻¹
